Some targets named below: MAGI1_2, Q96QZ7; LIMK2, P53671; SCRIB_3, Q14160; TJP1_2, Q07157; NHERF4_2, Q86UT5; PARD3_3, Q8TEW0; TJP2_1, Q9UDY2; GRIP2_7, Q9C0E4; SCRIB_1, Q14160; GRIP2_3, Q9C0E4; GORASP1, Q9BQQ3.
Holding throughout (experiment): holdup assay
What all share (design): key: below the threshold = too weak to quantify, mostly under pKd 3.1 to 4
Common to all, as to conditions: plain residues with an end cap or a label only (N-terminal biotin on a linker: ado-ado)

The target of the next test is T1, DFNB31_1, Q9P202.
T1 sequence (Q9P202 135-233, limits assumed, looked up): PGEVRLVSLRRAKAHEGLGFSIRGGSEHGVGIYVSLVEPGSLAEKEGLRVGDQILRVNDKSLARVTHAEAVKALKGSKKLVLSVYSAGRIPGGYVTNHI

In another test the target is T2, DFNB31_3, Q9P202.
T2 sequence (Q9P202 811-907, limits assumed, looked up): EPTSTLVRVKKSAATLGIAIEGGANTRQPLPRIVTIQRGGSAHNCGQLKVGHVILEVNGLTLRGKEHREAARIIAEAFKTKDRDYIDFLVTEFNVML

Another test deals with T3, SNTA1, Q13424.
T3 sequence (Q13424 82-180, limits assumed, looked up): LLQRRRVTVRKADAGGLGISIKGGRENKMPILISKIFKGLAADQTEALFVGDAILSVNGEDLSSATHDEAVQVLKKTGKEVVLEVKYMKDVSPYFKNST

Another test addresses T4, SIPA1L2, Q9P2F8.
T4 sequence (Q9P2F8 945-1036, limits assumed, looked up): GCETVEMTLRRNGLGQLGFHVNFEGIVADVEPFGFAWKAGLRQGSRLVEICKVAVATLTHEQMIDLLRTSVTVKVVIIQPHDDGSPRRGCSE

The next test has as its target T5, CARD11, Q9BXL7.
T5 sequence (Q9BXL7 662-765, limits assumed, looked up): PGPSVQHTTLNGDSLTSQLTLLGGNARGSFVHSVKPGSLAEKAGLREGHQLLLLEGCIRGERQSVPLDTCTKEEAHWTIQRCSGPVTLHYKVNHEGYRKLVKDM

In the next test the target is T6, HTRA3, P83110.
T6 sequence (P83110 354-453, limits assumed, looked up): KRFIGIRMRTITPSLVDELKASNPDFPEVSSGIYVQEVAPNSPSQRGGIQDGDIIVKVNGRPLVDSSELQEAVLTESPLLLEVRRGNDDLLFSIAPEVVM

The target of another test is T7, TJP3_3, O95049.
T7 sequence (O95049 375-456, limits assumed, looked up): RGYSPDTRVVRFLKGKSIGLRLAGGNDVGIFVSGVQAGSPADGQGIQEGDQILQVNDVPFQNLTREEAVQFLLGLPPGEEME

A further test concerns the target T8, SNTG1, Q9NSN8.
T8 sequence (Q9NSN8 52-150, limits assumed, looked up): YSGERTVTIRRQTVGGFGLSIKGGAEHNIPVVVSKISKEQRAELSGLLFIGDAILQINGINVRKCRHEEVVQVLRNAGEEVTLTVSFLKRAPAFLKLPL

A further test concerns the target T9, PDZD7_3, Q9H5P4.
T9 sequence (Q9H5P4 857-944, limits assumed, looked up): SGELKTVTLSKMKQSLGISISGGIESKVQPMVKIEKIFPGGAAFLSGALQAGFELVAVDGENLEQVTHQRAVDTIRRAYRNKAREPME

The target of the next test is T10, PARD3B_1, Q8TEW8.
T10 sequence (Q8TEW8 196-299, limits assumed, looked up): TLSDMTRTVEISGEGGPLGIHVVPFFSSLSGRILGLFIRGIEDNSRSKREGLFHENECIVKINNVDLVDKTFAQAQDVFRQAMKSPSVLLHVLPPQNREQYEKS

The target of a further test is T11, APBA2_2, Q99767.
T11 sequence (Q99767 654-744, limits assumed, looked up): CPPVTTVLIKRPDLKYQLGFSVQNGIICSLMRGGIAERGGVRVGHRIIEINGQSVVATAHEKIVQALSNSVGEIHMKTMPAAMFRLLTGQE

In a further test the target is T12, ARHGAP21, Q5T5U3.
T12 sequence (Q5T5U3 45-169, limits assumed, looked up): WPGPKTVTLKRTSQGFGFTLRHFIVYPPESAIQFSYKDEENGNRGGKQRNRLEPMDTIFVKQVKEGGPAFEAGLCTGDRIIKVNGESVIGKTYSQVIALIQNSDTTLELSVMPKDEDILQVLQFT

The target of another test is T13, FRMPD1, Q5SYB0.
T13 sequence (Q5SYB0 52-145, limits assumed, looked up): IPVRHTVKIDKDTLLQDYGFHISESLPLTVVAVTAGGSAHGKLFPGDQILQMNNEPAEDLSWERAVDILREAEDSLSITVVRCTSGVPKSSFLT

In PMC9482650, “Quantitative fragmentomics allow affinity mapping of interactomes” (Nature Communications, 2022) one finds pKd data, which are given here for four molecules.

Sequence of TJP2_1, Q9UDY2 (Q9UDY2 24-128): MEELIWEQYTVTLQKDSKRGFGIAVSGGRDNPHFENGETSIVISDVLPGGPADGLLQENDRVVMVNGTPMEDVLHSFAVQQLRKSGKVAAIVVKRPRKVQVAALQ
Sequence of GORASP1, Q9BQQ3 (Q9BQQ3 1-208): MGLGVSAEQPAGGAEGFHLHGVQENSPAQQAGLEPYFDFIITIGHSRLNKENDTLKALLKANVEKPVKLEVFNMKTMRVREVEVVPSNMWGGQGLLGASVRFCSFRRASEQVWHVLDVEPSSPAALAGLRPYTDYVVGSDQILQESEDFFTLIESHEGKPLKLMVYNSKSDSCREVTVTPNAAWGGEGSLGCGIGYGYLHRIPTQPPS
Sequence of NHERF4_2, Q86UT5 (Q86UT5 220-308): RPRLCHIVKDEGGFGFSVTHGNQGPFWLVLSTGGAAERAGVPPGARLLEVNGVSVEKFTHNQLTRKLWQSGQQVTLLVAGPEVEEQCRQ
Sequence of MAGI1_2, Q96QZ7 (Q96QZ7 456-580): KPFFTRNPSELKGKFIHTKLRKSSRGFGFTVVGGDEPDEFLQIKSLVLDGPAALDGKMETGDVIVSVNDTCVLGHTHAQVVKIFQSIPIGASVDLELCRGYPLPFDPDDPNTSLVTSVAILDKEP
Sequence of TJP1_2, Q07157 (Q07157 181-274): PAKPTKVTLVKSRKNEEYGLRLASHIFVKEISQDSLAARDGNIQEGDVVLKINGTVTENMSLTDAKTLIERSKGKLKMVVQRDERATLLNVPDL
Sequence of SCRIB_3, Q14160 (Q14160 999-1103): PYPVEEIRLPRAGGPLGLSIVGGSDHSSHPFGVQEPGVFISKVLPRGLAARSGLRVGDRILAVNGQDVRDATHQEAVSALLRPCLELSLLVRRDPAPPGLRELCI
Sequence of GRIP2_7, Q9C0E4 (Q9C0E4 934-1023): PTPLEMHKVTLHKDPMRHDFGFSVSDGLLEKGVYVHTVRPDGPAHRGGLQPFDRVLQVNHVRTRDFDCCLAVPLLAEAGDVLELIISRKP
Sequence of LIMK2, P53671 (P53671 143-248): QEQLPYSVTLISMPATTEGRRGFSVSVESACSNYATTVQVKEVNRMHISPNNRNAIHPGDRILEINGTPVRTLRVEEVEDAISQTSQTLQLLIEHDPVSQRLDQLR
Sequence of SCRIB_1, Q14160 (Q14160 718-814): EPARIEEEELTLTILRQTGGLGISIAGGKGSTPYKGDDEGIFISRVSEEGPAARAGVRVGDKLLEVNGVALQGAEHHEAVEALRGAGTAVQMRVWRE
Sequence of GRIP2_3, Q9C0E4 (Q9C0E4 238-339): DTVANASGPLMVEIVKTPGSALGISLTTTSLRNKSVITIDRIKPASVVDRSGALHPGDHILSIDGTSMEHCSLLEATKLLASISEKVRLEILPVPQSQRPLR
Sequence of PARD3_3, Q8TEW0 (Q8TEW0 582-685): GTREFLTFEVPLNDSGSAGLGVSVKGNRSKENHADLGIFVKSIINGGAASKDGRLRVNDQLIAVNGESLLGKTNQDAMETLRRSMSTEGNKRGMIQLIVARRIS

The term pKd denotes the negative decadic logarithm of the Kd, by convention in mol/L. As to KKTPVSRSHL [SLC22A3, O75751], the pKd with MAGI1_2, Q96QZ7 is 3.62; with LIMK2, P53671 it was “below the threshold”; in the test with SCRIB_3, Q14160, “below the threshold”; in the test with DFNB31_1, Q9P202 it was “below the threshold”; in the test with DFNB31_3, Q9P202, “below the threshold”; in the test with TJP1_2, Q07157, “below the threshold”. Also, the pKd in the test with SNTA1, Q13424 was 3.53; with SIPA1L2, Q9P2F8, 3.53; in the test with CARD11, Q9BXL7 it was “below the threshold”; in the test with HTRA3, P83110, “below the threshold”; in the test with NHERF4_2, Q86UT5 it was “below the threshold”; with PARD3_3, Q8TEW0, “below the threshold”. The pKd entry is “below the threshold” in the test with TJP2_1, Q9UDY2; “below the threshold” in the test with GRIP2_7, Q9C0E4; “below the threshold” with TJP3_3, O95049; 3.91 with SCRIB_1, Q14160; “below the threshold” with SNTG1, Q9NSN8; 3.91 with PDZD7_3, Q9H5P4. The pKd result with GRIP2_3, Q9C0E4 was “below the threshold”; with PARD3B_1, Q8TEW8 it was “below the threshold”; with APBA2_2, Q99767, “below the threshold”; in the test with ARHGAP21, Q5T5U3 it was 3.97; in the test with GORASP1, Q9BQQ3, “below the threshold”; with FRMPD1, Q5SYB0 it was “below the threshold”.
For the molecule HDDYFYHDEL [RCN2, Q14257], the pKd result with MAGI1_2, Q96QZ7 was “below the threshold”; in the test with LIMK2, P53671 it was “below the threshold”; with SCRIB_3, Q14160, 3.81; with DFNB31_1, Q9P202 it was “below the threshold”; in the test with DFNB31_3, Q9P202, “below the threshold”; with TJP1_2, Q07157, “below the threshold”. Also, the pKd in the test with SNTA1, Q13424 is 3.6; with SIPA1L2, Q9P2F8 it was “below the threshold”; with CARD11, Q9BXL7, “below the threshold”; in the test with HTRA3, P83110, “below the threshold”; with NHERF4_2, Q86UT5, “below the threshold”; with PARD3_3, Q8TEW0, 3.96. In addition, the pKd result is “below the threshold” with TJP2_1, Q9UDY2; “below the threshold” with GRIP2_7, Q9C0E4; “below the threshold” with TJP3_3, O95049; “below the threshold” in the test with SCRIB_1, Q14160; “below the threshold” with SNTG1, Q9NSN8; “below the threshold” in the test with PDZD7_3, Q9H5P4. The negative logarithm of the Kd (pKd) result with GRIP2_3, Q9C0E4 is “below the threshold”; with PARD3B_1, Q8TEW8 it was 3.7; with APBA2_2, Q99767, “below the threshold”; with ARHGAP21, Q5T5U3, 4.17; with GORASP1, Q9BQQ3, “below the threshold”; with FRMPD1, Q5SYB0, “below the threshold”.
As to LPPPESESKV [KCNJ9, Q92806], the pKd entry was “below the threshold” with MAGI1_2, Q96QZ7; “below the threshold” with LIMK2, P53671; “below the threshold” with SCRIB_3, Q14160; 4.01 with DFNB31_1, Q9P202; “below the threshold” with DFNB31_3, Q9P202; “below the threshold” in the test with TJP1_2, Q07157. The pKd with SNTA1, Q13424 was 3.99; with SIPA1L2, Q9P2F8, “below the threshold”; with CARD11, Q9BXL7, 3.73; in the test with HTRA3, P83110, “below the threshold”; in the test with NHERF4_2, Q86UT5, “below the threshold”; with PARD3_3, Q8TEW0, “below the threshold”. For the same molecule, the negative logarithm of the Kd (pKd) entry in the test with TJP2_1, Q9UDY2 was “below the threshold”; with GRIP2_7, Q9C0E4 it was “below the threshold”; with TJP3_3, O95049, “below the threshold”; in the test with SCRIB_1, Q14160, “below the threshold”; in the test with SNTG1, Q9NSN8 it was 4.31; with PDZD7_3, Q9H5P4, “below the threshold”. Besides, the pKd entry is “below the threshold” in the test with GRIP2_3, Q9C0E4; “below the threshold” with PARD3B_1, Q8TEW8; “below the threshold” in the test with APBA2_2, Q99767; “below the threshold” with ARHGAP21, Q5T5U3; “below the threshold” in the test with GORASP1, Q9BQQ3; “below the threshold” with FRMPD1, Q5SYB0.
Take KAEEKPPSKV [SCN4B, Q8IWT1]: the pKd result with MAGI1_2, Q96QZ7 was “below the threshold”; with LIMK2, P53671, “below the threshold”; with SCRIB_3, Q14160, “below the threshold”; with DFNB31_1, Q9P202, 3.57; with DFNB31_3, Q9P202, “below the threshold”; in the test with TJP1_2, Q07157 it was “below the threshold”. For the same molecule, the negative logarithm of the Kd (pKd) result with SNTA1, Q13424 was “below the threshold”; with SIPA1L2, Q9P2F8, “below the threshold”; with CARD11, Q9BXL7, “below the threshold”; with HTRA3, P83110, “below the threshold”; with NHERF4_2, Q86UT5, 3.49; with PARD3_3, Q8TEW0, “below the threshold”. For the same molecule, the pKd result is given as “below the threshold” with TJP2_1, Q9UDY2; “below the threshold” with GRIP2_7, Q9C0E4; “below the threshold” with TJP3_3, O95049; “below the threshold” in the test with SCRIB_1, Q14160; “below the threshold” with SNTG1, Q9NSN8; “below the threshold” with PDZD7_3, Q9H5P4. Moreover, the negative-log Kd (pKd) result is reported as “below the threshold” with GRIP2_3, Q9C0E4; “below the threshold” with PARD3B_1, Q8TEW8; “below the threshold” in the test with APBA2_2, Q99767; “below the threshold” with ARHGAP21, Q5T5U3; “below the threshold” in the test with GORASP1, Q9BQQ3; “below the threshold” in the test with FRMPD1, Q5SYB0.
